Reference: the RNAGym collection of RNA variant scans (doi:10.1073/pnas.2313332121)

B1: TPR t1 (parent)
chain: GACCAAUCUGCCCUCAGAGCUCGAGAACAUCUUCGGAUGCAGAGGAGGCAGGCUUCGGUGGCGCGAUAGCGCCAACGUCCUCAACCUCCAAUGCAUCCCACCACAUGAUGAUGCCUGAAGAGCCUUGGUUUUUUG

Variants of: B1
Test: polymerase ribozyme fitness, log enrichment relative to wild type (log ratio); higher = more active; in vitro selection for triplet polymerase activity
In short: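 PCR was used to build mutant libraries for each subunit of a heterodimeric triplet polymerase ribozyme, which were then transcribed. A single in vitro selection round, in triplicate, used a frozen incubation at −7 °C and recovered extended constructs by gel excision, streptavidin beads and RT-PCR. Fitness is the logarithm of genotype enrichment relative to wild-type enrichment, averaged over replicates with inverse-variance weights. The logarithm is base 2, and after Illumina sequencing only genotypes with ≥10 input reads and ≥1 read per output were kept.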

Variant | polymerase ribozyme fitness (log ratio)
G63C A111G U125C | -1.75
C34U | -4.05
C82G C98G U109A C123G | -7.59
C4A G52C C114U | -6.04
A5G U9A A27G C53U U126A U133A | -3.09
G44A A111U | -4.79
G93U U112G G120C C123U | -2.5
G48U G71U | -1.01
C20U U54A | -0.906
A6U G48U A105U | -2.38
C12A A16U A50U A74U | -5.14
A103U U130G | -5.63
C15U G61C C104A C124U | -3.58
C11G C28A U112A | -1.33
C12A C101U | -0.736
G63C G65A | -5.84
A18U G44A | -2.99
A29C G69U G77U | -2.24
C8U C53G C56A C86U U96G G117U | -2.48
A29U C56U G120C G127A | -2.48
C13A A18C C94G C114U | -5.11
C8U G44C G63A | -0.547
A2U U87G U96G | -3.12
A18C U54G C123G | -0.39

Variant | polymerase ribozyme fitness (log ratio)
C12U A84C G120U | 1.69
C11G U14C A41G C56G | -0.436
C8G C72U | 0.18
A111G U112A | -2.9
C72A C102U C123A C124G | 0.156
G63C C79G C123U C124G | 0.0911
G48C C72U U78C C86A C101A C114U C124U | -4.1
G48A G60U A90C C114A | -2.49
G17A A41C A43U G44C | -5.92
C8U G63U A90G C115A | -0.076
G44A U78G | -1.09
A29U C72U U92C | -2.98
G17U C64U | -2.46
A29U C70G U125G | -3.65
G71U G120U | -0.136
C53U U96G G113C | -2.77
A5C A27U C73U C123U G128A | -3.34
C62A A66U C73U A95C C123U | -5.94
G42U G71U C101U | -1.49
G71A G113U | -3.89
C73G G117C | -3.91
A16U A37C C73G U112C U133G | -1.75
G47U A100U | -2.31
A91G C115G | -4.4

Variant | polymerase ribozyme fitness (log ratio)
U7A C13U C15U G44U G77U | -2.35
C49A C72U G77U | -2.22
G61C C80U G120U | -7.22
A43G A50G C101G C124A U129A | -3.82
C4U A18C | -3.99
C80U C86U C114G C124G U125A | -3.38
A27C U54C C70U | -4.38
A2U A50C C56U G57U C62U A91U C124G G127C G128C | -4.5
U81C G128U | -2.54
A5C C49U C53A C73U | -0.789
U78C C79U U106C | 0.0469
C49U G61A C79U C97G | -5.31
G60U C94U G110C | -4.16
C80A A108G | -5.73
C20U A27U C64U G113A | -3.6
U96A C104U | -0.116
U54A C62U C64U | -0.217
C8G U14G C53U G71U | 0.478
G48U G93A G120A | -0.388
U33G A118G | -5.59
A16U C70U | -1.98
C53G A119G G128U | 0.277
C13A C101A | -2.54
G44C U78C C115G C123U | -4.64

Variant | polymerase ribozyme fitness (log ratio)
C11G G122U | 0.995
U33G G39U A50U A84U A91C C114A | -5.3
C11U A43G G63A | -5.66
A2U C15A | -4.12
G44U C49A | -2.67
G23U C56U | -6.5
G48U U59C C70G | -6.09
G10A C13U C22G G35C C101A U131G | -4.66
G36U A50G C114A U132A | -2.9
C28U G47A G60C | -3.22
A41G C49A G113C C124U | -3.06
C49A U78G U87G A121G G128U | -0.14
A37G G69U C73U U87C C104A U131G | -4.34
U14C C15U G39A G117A | -0.915
C11A A29U U59A C70U G120A | -1.3
A50U G51A C73U | -3.5
U32G | -6.71
C3A A46C C53A C72U | -1.88
G61C A75U C97U | -0.192
A41G C49G U59G | -1.99
U109C C124A | -1.7
U9G U54G U81A U125A G128U | -3.65
A6C G57C | -0.375
A46U G52U C104U G110A | -3.02

Variant | polymerase ribozyme fitness (log ratio)
U9G C56G G61U G93C | -3.2
A2U C56A G63A C104A U112A | -5.33
G69U C98G | -2.4
A37G C80U | -2.46
G10U U78C C86U G110A | -1.98
G39A C62U A75U A83C U87C | -1.16
C20G G42U G113C | -3.64
C22A G39U | -5.33
G51U G120C | -2.42
G48U G60A C85G | -0.64
G42A G52C C62A | -4.83
C13U A27C A83U A84C C86A | -3.39
A2U C73A U78A U87C C124A U126A | -1.46
C22U G45U G47C | -7.47
C13U G51U | -2.84
U9C G47C G71U | -2.13
C8U C40G G61A G120A | 1.65
G77A U87A C101G | -2.13
C13G C28U C101U | -4.7
A46U U132A | -1.18
U9G G36U G57U | -0.893
C12A C13U U54A C72U C89A | -1.99
C70U G93U | -1.7
C104U G120U | -0.787

Variant | polymerase ribozyme fitness (log ratio)
C12U C123G | 2.68
G44A C72G C123A | -1.13
U7A G120A | 1.77
G48U C72G | -1.7
U9G A41U G71A U81C U96A | -5.71
A41G A46C C88U C104U | -0.948
G10U G42A G45U | -3.02
C11G C22U A50U C56A G57U C89U | -6.34
C62G C79U G110A | -2.71
C86A U109A | -5.39
C49U G63C C85U | -1.05
A74U C82G C123U U131A U134C | 0.478
C11G C49A | 0.121
G39U G44A | -1.38
A2G C62U U78A A103C | -5.9
G36A G61U U87C C123G | 0.936
A2G C11G G42A C89G | -4.87
C72G U78C C82U C94A | -0.768
C31G C124A U129G | -6.34
U96G C124A | 1.39
A26U A50U C124G | -2.5
U30C C73U | -2.48
C56A U129C | -0.603
G71A G127U | -0.848

Variant | polymerase ribozyme fitness (log ratio)
C3U A6U G48A C115U | -2.28
A18U C115U | -2.09
A43G C56G G69U A108G C124A | -2.3
C11U A16U U54G U59C | -3.88
A29C A50U | -2.67
A6C G120U | 0.259
G52A G60U C82A C88U A90G U116A U130A | -6.12
A5C G17A G36U | -5.9
C22A G63A C94A A100U C115A | -5.85
C8U C12G G17C C80U A90U | -2.49
C13G A43U C76U | -1.01
A24U C79U C114U G128A U131A | -5.77
G52C C56A C102U U133A | -2.78
C56A C62G C88U | -3.82
G10C A16U | -1.98
U78A U96C C104U | 0.046
C12G A66C | -0.578
C115U U125A | -0.551
G52C C73U G110U | -2.38
C12G | 0.29
C70U U78C C86G | -0.947
U106G C124A | 1.19
A16C C73U C115G | -3.06
